Our source for the IC50 and Ki values is publication PMC2936243 (Journal of neurochemistry, 2010).

The target of the assay is native rat α7 nicotinic acetylcholine receptor (hippocampus) (rat (endogenous in hippocampus)) (UniProt Q05941). Put plainly: radioligand binding.

Turning to “Alexa Fluor 546-ArIB[V11L;V16A] (peptide)”, the IC50 (in general, the concentration that gives 50% inhibition) came to 7.9 nM and the Ki (as a rule, a measure of affinity in units of concentration, obtained from inhibition or displacement) amounted to 1.8 nM.
